Laboratory results reported in patent publication US20120207760A1.
“And” between values parts separate entries of the source, which are not always exact repeats. Equal values may be shown once.

Biological target: M2 protein of influenza A/Hong Kong/483/97 (H5N1) (Influenza A virus A/Hong Kong/483/97)

Sequence of TCN-032 (8I10) (antibody) (VH): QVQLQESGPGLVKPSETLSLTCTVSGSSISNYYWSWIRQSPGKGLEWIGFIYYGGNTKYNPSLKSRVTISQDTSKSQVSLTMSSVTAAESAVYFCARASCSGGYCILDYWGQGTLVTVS
Sequence of TCN-032 (8I10) (antibody) (VL): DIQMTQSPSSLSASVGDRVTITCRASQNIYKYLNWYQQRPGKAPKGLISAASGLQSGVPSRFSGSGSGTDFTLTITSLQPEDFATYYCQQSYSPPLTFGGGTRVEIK

TCN-032 (8I10) (antibody) was tested, and the FACS M2-HK MFI was 754 MFI and 1080 MFI.
